Test results taken from patent publication US20070077597A1 (published 2007).
Substitutions are numbered along the chain they refer to.

T1: human thrombin receptor (PAR1) (human, UniProt P25116 42-425)
T1 sequence (looked up): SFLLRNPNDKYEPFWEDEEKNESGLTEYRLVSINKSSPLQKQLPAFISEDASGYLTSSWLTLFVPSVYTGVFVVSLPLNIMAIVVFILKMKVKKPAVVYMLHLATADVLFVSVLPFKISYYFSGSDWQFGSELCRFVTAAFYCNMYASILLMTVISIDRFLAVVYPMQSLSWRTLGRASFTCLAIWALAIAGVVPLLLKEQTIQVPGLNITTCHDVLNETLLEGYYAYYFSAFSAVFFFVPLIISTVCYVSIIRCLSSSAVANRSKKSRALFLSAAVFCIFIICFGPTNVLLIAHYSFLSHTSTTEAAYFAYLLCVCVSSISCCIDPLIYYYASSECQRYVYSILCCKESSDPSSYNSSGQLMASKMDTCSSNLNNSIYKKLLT

B1: Gαi C-terminal minigene peptide (pcDNA-Gαi) (peptide)
peptide: MGIKNNLKDCGLF
B2: Gα12 C-terminal minigene peptide (pcDNA-Gα12) (peptide)
peptide: MGLQENLKDIMLQ
B3: Gα13 C-terminal minigene peptide (pcDNA-Gα13) (peptide)
peptide: MGLHDNLKQLMLQ
B4: Gαq C-terminal minigene peptide (pcDNA-Gαq) (peptide)
peptide: MGLQLNLKEYNAV
B5: LacI fusion clone L3 (Gt library) (other, E. coli, not shown: small tags and cut ends)
chain: MKPVTLYDVAEYAGVSYQTVSRVVNQASHVSAKTREKVEAAMAELNYIPNRVAQQLAGKQSLLIGVATSSLALHAPSQIVAAIKSRADQLGASVVVSMVERSGVEACKAAVHNLLAQRVSGLIINYPLDDQDAIAVEAACTNVPALFLDVSDQTPINSIIFSHEDGTRLGVEHLVALGHQQIALLAGPLSSVSARLRLAGWHKYLTRNQIQPIAEREGDWSAMSGFQQTMQMLNEGIVPTAMLVANDQMALGAMRAITESGLRVGADISVVGYDDTEDSSCYIPPLTTIKQDFRLLGQTSVDRLLQLSQGQAVKGNQLLPVSLVKRKTTLAPNTQTASPRALADSLMQLARQVSRLESGQILENLKDCGLF
B6: LacI fusion clone L38 (Gt library) (other, E. coli, not shown: small tags and cut ends)
chain: B5 chain with I361L, E363D, N364I
B7: LacI fusion clone L14 (Gt library) (other, E. coli, not shown: small tags and cut ends)
chain: B5 chain with I361L, L362R, F371L
B8: LacI fusion clone L33 (Gt library) (other, E. coli, not shown: small tags and cut ends)
chain: B5 chain with L362V, N364I, K366E
B9: LacI fusion clone L34 (Gt library) (other, E. coli, not shown: small tags and cut ends)
chain: B5 chain with N364S, K366N, D367E
B10: LacI fusion clone 13 (Gt library), IRGSLKDCGLF (other, E. coli, not shown: small tags and cut ends)
chain: B5 chain with L362R, E363G, N364S
notes: also called L20
B11: LacI fusion clone L6 (Gt library) (other, E. coli, not shown: small tags and cut ends)
chain: B5 chain with L362C
B12: LacI fusion clone L15 (Gt library) (other, E. coli, not shown: small tags and cut ends)
chain: B5 chain with I361V, L362R, E363D, N364I
B13: LacI fusion clone L10 (Gt library), IHDRLKDCGLF (other, E. coli, not shown: small tags and cut ends)
chain: B5 chain with L362H, E363D, N364R
notes: this is the first
B14: LacI fusion clone 8 (Gt library) (other, E. coli, not shown: small tags and cut ends)
chain: B5 chain with I361L, K366R, L370M
notes: also called Peptide 8; HAP

The molecules below were run against T1, human thrombin receptor (PAR1) (assay: cell-based or functional assay).
For B1, the “thrombin-mediated HA-MAPK activity in HMEC” value was 59 % decrease.
With B2 the “thrombin-mediated HA-MAPK activity in HMEC” value was 50 % decrease.
In the case of B3, the “thrombin-mediated HA-MAPK activity in HMEC” value is reported as 77 % decrease.
B4 was tested, and the “thrombin-mediated HA-MAPK activity in HMEC” value was 57 % decrease.

These molecules were tested against T2, light-activated bovine rhodopsin (metarhodopsin II) in rod outer segment membranes (bovine, UniProt P02699 1-348, retinylidene chromophore on Lys-296 (all-trans after light)) (assay: ELISA of clone lysate on rhodopsin).
T2 construct: whole, on cells; also called MII
T2 sequence (P02699 whole entry): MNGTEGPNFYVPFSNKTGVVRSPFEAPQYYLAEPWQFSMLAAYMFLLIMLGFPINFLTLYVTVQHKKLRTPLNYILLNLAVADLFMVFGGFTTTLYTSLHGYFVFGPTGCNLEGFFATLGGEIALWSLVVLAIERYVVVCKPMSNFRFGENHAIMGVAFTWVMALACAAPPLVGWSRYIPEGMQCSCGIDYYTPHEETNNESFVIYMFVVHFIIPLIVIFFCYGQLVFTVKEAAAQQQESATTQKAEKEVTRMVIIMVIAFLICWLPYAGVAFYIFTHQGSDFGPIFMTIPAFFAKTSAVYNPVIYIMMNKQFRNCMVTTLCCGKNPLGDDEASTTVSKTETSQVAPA
Method: The methods of Example 7 repeated using rhodopsin screening with a Gt library. To identify the rank order of binding, the lysates were analyzed using ELISA methods in which the secondary antibody was conjugated to HRP. Following addition of the substrate, the microplate was read using a spectrophotometer. The binding is the OD₄₅₀ for wells with receptor—OD₄₅₀ for wells in which no receptor (control wells with empty lipid vesicles).
For B5, the “ELISA (OD450 with receptor minus OD450 without receptor)” value was 0.839 OD450.
In the case of B6, the “ELISA (OD450 with receptor minus OD450 without receptor)” value is reported as 0.823 OD450.
B7 was tested, and the “ELISA (OD450 with receptor minus OD450 without receptor)” value was 0.833 OD450.
With B8 the “ELISA (OD450 with receptor minus OD450 without receptor)” value was 1.01 OD450.
B9 was tested, and the “ELISA (OD450 with receptor minus OD450 without receptor)” value was 0.603 OD450.
With B10 the “ELISA (OD450 with receptor minus OD450 without receptor)” value was 0.423 OD450.
For B11, the “ELISA (OD450 with receptor minus OD450 without receptor)” value was 0.342 OD450.
In the case of B12, the “ELISA (OD450 with receptor minus OD450 without receptor)” value is reported as 0.621 OD450.
B13 was tested, and the “ELISA (OD450 with receptor minus OD450 without receptor)” value was 0.506 OD450.

What follows are molecules tested against T2, light-activated bovine rhodopsin … (assay: first screening of the Gαt library on light-activated rhodopsin).
B14 was tested, and the “fold higher binding than the native sequence” value was 1000 fold.

These molecules were tested against T1, human thrombin receptor (PAR1) (assay: ELISA dose-response, purified MBP-Gαq on purified reconstituted PAR1 with thrombin receptor activating peptide).
“purified maltose binding protein-Gαq (MBP-Gαq), native Gq C-terminal peptide fusion” gave an IC50 of 214 nM.
